For the test, the system named is lymphocytes. The test can be described thus: Proliferation assay for stimulated lymphocytes (tritiated thymidine incorporation; % suppression, SI). Conditions: for SI (stimulation index): stimulant alone: OVA 500 μg/ml, PPD 25 μg/ml, ConA 2.5 μg/ml, LPS 10 μg/ml, ionomycin 100 ng/ml with 1 ng/ml PMA. The test is classed as cell-based, mice.

Where “and” joins values, the source holds several entries; their conditions need not be identical. Equal entries are not always repeated.

Consider “Concanavalin A [ConA, reference compound]”, for which the “SI (stimulation index)” value stood at 31.2 ± 32.7.

Take “ionomycin at 100 ng/ml with 1 ng/ml phorbol 12-myristate 13 acetate (PMA) [Ionomycin/PMA, reference compound]”: the “SI (stimulation index)” value was 23.6 ± 11.2.

B1: chicken ovalbumin (protein, UniProt P01012 2-386, looked up)
Ovalbumin: GSIGAASMEFCFDVFKELKVHHANENIFYCPIAIMSALAMVYLGAKDSTRTQINKVVRFDKLPGFGDSIEAQCGTSVNVHSSLRDILNQITKPNDVYSFSLASRLYAEERYPILPEYLQCVKELYRGGLEPINFQTAADQARELINSWVESQTNGIIRNVLQPSSVDSQTAMVLVNAIVFKGLWEKAFKDEDTQAMPFRVTEQESKPVQMMYQIGLFRVASMASEKMKILELPFASGTMSMLVLLPDEVSGLEQLESIINFEKLTEWTSSNVMEERKIKVYLPRMKMEEKYNLTSVLMAMGITDVFSSSANLSGISSAESLKISQAVHAAHAEINEAGREVVGSAEAGVDAASVSEEFRADHPFLFCIKHIATNAVLFFGRCVSP
notes: Stimulating antigen
Consider B1, for which the “SI (stimulation index)” value was 8.8 ± 5.8 and 7.9 ± 4.2. Moreover, the “SI for chicken ovalbumin incubated with brain homogenate” value (homogenate removed by centrifugation and 0.2μ filter, n=4) is reported as 4.8±1.8. For the same molecule, the “SI for chicken ovalbumin incubated alone” value (incubated without brain homogenate, n=4) is recorded as 4.1±0.9.

(Values after patent US6352723B1, “Brain-derived alkali-soluble immunoregulatory composition” (priority 1999, dated 2002).)
